Tests used:
[1] = molecular target: T1, Human LAG-3 on cells (human LAG-3 expressing EL4 cells; activated human CD3+ T cells) (human, UniProt P18627 23-525); assay: flow cytometry (MFI), Alexa647-conjugated antibody titrated on human LAG-3 expressing EL4 cells; direct binding curve, half-maximal value labelled IC50 in the table under the graph; unit taken from the concentration axis
T1 construct: whole, on cells; also called LAG-3 positive T cells
T1 sequence (looked up): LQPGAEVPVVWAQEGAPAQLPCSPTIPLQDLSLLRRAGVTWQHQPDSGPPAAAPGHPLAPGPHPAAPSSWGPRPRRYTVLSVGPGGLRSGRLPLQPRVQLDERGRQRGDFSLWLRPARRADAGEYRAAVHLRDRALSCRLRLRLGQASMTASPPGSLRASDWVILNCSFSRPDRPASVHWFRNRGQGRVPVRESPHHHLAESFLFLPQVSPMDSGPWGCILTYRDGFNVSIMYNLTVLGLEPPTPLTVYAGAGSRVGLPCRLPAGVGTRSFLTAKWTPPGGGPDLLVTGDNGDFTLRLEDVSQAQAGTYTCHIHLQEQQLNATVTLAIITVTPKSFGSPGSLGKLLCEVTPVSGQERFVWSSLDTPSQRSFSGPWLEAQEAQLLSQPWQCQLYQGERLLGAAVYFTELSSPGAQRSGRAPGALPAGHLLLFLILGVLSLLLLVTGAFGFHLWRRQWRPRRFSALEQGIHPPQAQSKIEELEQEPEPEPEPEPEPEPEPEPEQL
Method: Human LAG-3 expressing EL4 cells were incubated with either IMP731, H5L7 or H5L7BW Alexa647-conjugated antibodies at varying concentrations of up to 50 μg/ml for 30 minutes at room temperature. Cells were washed with FACS buffer (PBS+0.5% BSA) to remove unbound antibody.
(§1) EL4 cells and CD3⁺ T cells were analysed by FACS using a Beckman Coulter FC 500 flow cytometer. FACS raw data were analysed using CXP Analysis software (Beckman Coulter). The data was initially plotted on a forward-scatter versus side-scatter plot and the population of cells of interest were gated. This gated population was then plotted as a histogram displaying fluorescence intensity and the mean fluorescence intensity (MFI) calculated. MFI values were then plotted in GraphPad Prism 5 software to generate dose response curves.

[2] = molecular target: T2, Recombinant human LAG-3 ECD-His6 (human, UniProt P18627 23-433); assay: SPR Biacore T100, antibody captured on Protein A, LAG-3 ECD-His6 analyte, 1:1 model, 25 C, geometric mean of 3 runs (table head says nM; value is in M by paragraph 194)
T2 construct: also called LAG-3-His; recombinant human LAG-3-His
T2 sequence: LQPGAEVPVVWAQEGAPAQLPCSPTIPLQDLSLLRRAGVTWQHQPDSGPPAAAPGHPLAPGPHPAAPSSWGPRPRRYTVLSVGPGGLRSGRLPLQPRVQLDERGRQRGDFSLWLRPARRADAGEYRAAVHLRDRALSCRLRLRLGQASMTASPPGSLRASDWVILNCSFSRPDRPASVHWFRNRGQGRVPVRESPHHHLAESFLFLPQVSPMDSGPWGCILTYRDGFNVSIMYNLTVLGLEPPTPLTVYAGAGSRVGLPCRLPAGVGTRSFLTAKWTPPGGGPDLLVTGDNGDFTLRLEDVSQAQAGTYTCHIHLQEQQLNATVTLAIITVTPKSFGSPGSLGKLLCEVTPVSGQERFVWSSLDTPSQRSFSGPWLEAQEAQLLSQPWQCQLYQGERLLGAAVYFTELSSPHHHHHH
Method: (§2) Wild type fucosylated and afucosylated antibodies were compared for their ability to bind to recombinant human LAG-3 ECD with a C-terminal His6 (SEQ ID NO:51) using the Biacore™ T100 (GE Healthcare™). Protein A was immobilised on a CM5 chip by primary amine coupling. This surface was then used to capture the humanised antibodies. Recombinant human LAG-3 ECD-His6 was then passed over the captured antibodies at 32, 8, 2, 0.5 and 0.125 nM and regeneration was carried out using 50 mM NaOH. The binding curves were double referenced with buffer injection (i.e. 0 nM) and the data was fitted to the T100 analysis software using the 1:1 model. The run was carried out at 25° C., using HBS-EP as the running buffer.
(§3) In order to investigate the statistical significance of this kinetic data, this experiment was repeated 3 times with the same batch of the four antibodies and the chimeric control. KD, ka and kd parameters were each log (base 10) transformed prior to separate statistical analyses. For each parameter, a mixed model analysis of variance CAnova′) was performed on transformed data, including terms for Run (random block effect) and Antibody.

[3] = molecular target: T2, Recombinant human LAG-3 ECD-His6; assay: SPR Biacore T100, antibody captured on Protein A, LAG-3 ECD-His6 analyte, 1:1 model, 25 C, geometric mean of 3 runs
Method: as §2, §3

[4] = molecular target: T1, Human LAG-3 on cells (human LAG-3 …); assay: flow cytometry (MFI), Alexa647-conjugated antibody titrated on activated human CD3+ T cells; direct binding curve, half-maximal value labelled IC50 in the table under the graph; unit taken from the concentration axis
Method: CD3⁺ T cells were prepared from PBMCs by negative selection using Untouched Human T cell Dynal beads. CD3⁺ T cells were activated by incubation with immobilised anti-CD3 and anti-CD28 and soluble recombinant human IL-12 for 3 days at 37° C. Activated cells were incubated with Alexa 647-conjugated antibodies of varying concentrations up to 3 μg/ml for 30 minutes at room temperature. Cells were washed with FACS buffer (PBS+0.5% BSA).
as §1

Binder	IC50 [1]	Kd [2]	koff [3]	IC50 [4]
H5L7BW (antibody, human IgG1, kappa, afucosylated: no fucose on the core carbohydrate structure attached to Asn297, Same plasmids as H5L7, expressed in the BioWa POTELLIGENT (FUT8 knock-out CHO) cell line; also called afucosylated antibody H5L7BW; afucosylated H5L7) heavy: not shown light: DIQMTQSPSSLSASVGDRVTITCKSSQSLLNPSNQKNYLAWYQQKPGKAPKLLVYFASTRDSGVPSRFSGSGSGTDFTLTISSLQPEDFATYYCLQHFGTPPTFGQGTKLEIKRTVAAPSVFIFPPSDEQLKSGTASVVCLLNNFYPREAKVQWKVDNALQSGNSQESVTEQDSKDSTYSLSSTLTLSKADYEKHKVYACEVTHQGLSSPVTKSFNRGEC	16.9 ng/mL	0.218 nM	0.00441 s⁻¹	3.07 ng/mL
H5L7 (antibody, human IgG1, kappa, Humanised IgG1/kappa of A9H12 (IMP731); also called fucosylated H5L7; non-ADCC enhanced variant H5L7) heavy: not shown light: DIQMTQSPSSLSASVGDRVTITCKSSQSLLNPSNQKNYLAWYQQKPGKAPKLLVYFASTRDSGVPSRFSGSGSGTDFTLTISSLQPEDFATYYCLQHFGTPPTFGQGTKLEIKRTVAAPSVFIFPPSDEQLKSGTASVVCLLNNFYPREAKVQWKVDNALQSGNSQESVTEQDSKDSTYSLSSTLTLSKADYEKHKVYACEVTHQGLSSPVTKSFNRGEC	14.2 ng/mL	0.208 nM	0.00395 s⁻¹	3.06 ng/mL
IMP731 (antibody, human IgG1, kappa, Chimeric (murine variable domains, human IgG1/kappa constant regions); also called A9H12; chimeric antibody IMP731) heavy: not shown light: DIVMTQSPSSLAVSVGQKVTMSCKSSQSLLNGSNQKNYLAWYQQKPGQSPKLLVYFASTRDSGVPDRFIGSGSGTDFTLTISSVQAEDLADYFCLQHFGTPPTFGGGTKLEIKRTVAAPSVFIFPPSDEQLKSGTASVVCLLNNFYPREAKVQWKVDNALQSGNSQESVTEQDSKDSTYSLSSTLTLSKADYEKHKVYACEVTHQGLSSPVTKSFNRGEC	13 ng/mL	2.76 nM	0.0275 s⁻¹	2.14 ng/mL
